# According to PMC10764363:
# Target: EEEV virus-like particles (VLPs: C, E2, and E1) (Eastern equine encephalitis virus) (UniProt Q4QXJ7)
# Experiment: ELISA
substance,measurement,value
LA3-LA3-LA3-LA3-LA3-Fc [LA3(5)-Fc] (from UniProt P01130) (Fc fusion),fold increase in binding avidity,100 fold
